The source of these data is patent publication US20240101668A1 (WUGEN, published 2024).

The target in test [1] is T1, huCD33-R69 stably expressed on Jurkat cells (human, UniProt P20138 18-364).
T1 construct: whole, on cells; >200,000 receptors per cell; also called CD33 WT; CD33^ARG69
In words: FACS on cells.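 Also: fixed Jurkat cells bearing either CD33 variant, barcoded by dye, exposed to myc-tagged scFv periplasmic extracts, detected with anti-myc PE antibody and read by flow cytometry.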
Experimental: (§1) Jurkat cells were engineered to stably express either the huCD33-R69 or huCD33-G69 variant at >200,000 receptors per cell. Parental, huCD33-R69, and huCD33-G69 Jurkat cell lines were stained with differing levels of CellTrace Violet Cell Proliferation Kit (ThermoFisher, cat. #C34557) to barcode each cell line. Barcoded Jurkat cell lines were fixed with paraformaldehyde and incubated with myc-labeled scFv periplasmic extracts and a secondary anti-myc PE-conjugated monoclonal antibody. Appropriate positive and negative controls were used. Stained cells were analyzed by flow cytometry (CytoFLEX, Beckman Coulter, Inc.) and binding was assessed by change in PE mean fluorescence intensity (MFI) of the barcoded cell populations.

Test [2] has as its target T2, huCD33-G69 stably expressed on Jurkat cells (human, UniProt P20138 18-364).
T2 construct: whole, on cells; >200,000 receptors per cell; also called CD33 Mutant; CD33 R69G
In words: FACS on cells.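 Also: fixed Jurkat cells bearing either CD33 variant, barcoded by dye, exposed to myc-tagged scFv periplasmic extracts, detected with anti-myc PE antibody and read by flow cytometry.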
Experimental: as §1

Test [3] addresses T3, huCD33-R69-His recombinant protein (human, UniProt P20138 18-259).
T3 construct: extracellular domain
In words: BLI.
Experimental: (§2) Discovered scFvs were analyzed for binding to huCD33-R69-His or huCD33-G69-Fc recombinant proteins (for anti-CD33 scFvs; for CLL-1 scFvs, huCLL1-K244-Avi-Tev-His or huCLL1-Q244-Avi-Tev-His were used; for FLT3, huFLT3-T227-His or huFLT3-M227-Fc were used) using BLI on a ForteBio Octet HTX instrument. Streptavidin-coated biosensors were loaded with biotinylated anti-V5 tag monoclonal antibody for 5 min and were then quenched and blocked with 20 μM amine-PEG2-Biotin for 5 min. scFvs were captured on biosensors from scFv clone periplasmic extracts. huCD33 (or huCLL-1, or huFLT3) proteins were then associated with the captured scFvs for 2 minutes, followed by dissociation with buffer (1×HBST [10 mM HEPES pH 7.4, 150 mM NaCl, 0.05% Tween-20], 1 g/L BSA) for 5 minutes. […] Data was fitted with 1:1 Langmuir equation and off-rate values were reported.

Test [4] concerns the target T4, huCD33-G69-Fc recombinant protein (human, UniProt P20138 18-259).
T4 construct: extracellular domain; also called CD33 R69G
In words: BLI.
Experimental: as §2

A further test addresses T5, huFLT3-T227-His (human, UniProt P36888 27-543).
T5 construct: extracellular domain; also called FLT3 WT
In words: BLI.

For another test, the target named is T6, huFLT3-M227-Fc (human, UniProt P36888 27-543).
T6 construct: extracellular domain; also called FLT3 Mutant
In words: BLI.

T1 sequence (P20138 18-364): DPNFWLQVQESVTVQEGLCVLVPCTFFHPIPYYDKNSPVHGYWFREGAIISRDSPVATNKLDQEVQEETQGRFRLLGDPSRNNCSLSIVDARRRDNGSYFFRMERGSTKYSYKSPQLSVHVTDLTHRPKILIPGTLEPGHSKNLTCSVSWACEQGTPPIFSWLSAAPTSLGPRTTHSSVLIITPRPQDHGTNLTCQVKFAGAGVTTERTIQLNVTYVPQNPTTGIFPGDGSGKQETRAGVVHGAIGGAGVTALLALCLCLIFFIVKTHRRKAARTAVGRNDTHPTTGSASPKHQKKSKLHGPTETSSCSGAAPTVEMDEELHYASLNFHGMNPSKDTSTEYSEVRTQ
T2 sequence (P20138 18-364 R69G): as the sequence (P20138 18-364) above, with R52G counted along it
T4 sequence (P20138 18-259 R69G): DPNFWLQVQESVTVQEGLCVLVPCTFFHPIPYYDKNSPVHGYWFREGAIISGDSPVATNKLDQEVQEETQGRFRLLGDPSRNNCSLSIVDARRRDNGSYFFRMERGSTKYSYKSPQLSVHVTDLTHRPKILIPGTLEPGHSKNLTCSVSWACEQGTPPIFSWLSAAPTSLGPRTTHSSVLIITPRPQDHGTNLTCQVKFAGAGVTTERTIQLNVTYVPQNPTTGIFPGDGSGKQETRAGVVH
T3 sequence (P20138 18-259): as the sequence (P20138 18-259 R69G) above, with G52R counted along it
Experimental for huFLT3-M227-Fc: as §2
Experimental for huFLT3-T227-His: as §2

B1: Polypeptide No. 32 (scFv, V domains shown)
VH: EVQLLESGGGLVQPGGSLRLSCAASGFTFSSYGMHWVRQAPGKGLEWVSSISGSGDTTYYADSVKGRFTISRDNSKNTLYLQMNSLRAEDTAVYYCARDNPYGDYGGSFDYWGQGTLVTVSS
VL: EIVMTQSPATLSVSPGERATLSCRASQSVSSSYLAWYQQKPGQAPRLLIYATSTRATGIPARFSGSGSGTEFTLTISSLQSEDFAVYYCQQYGSLPLTFGQGTKVEIKR
notes: scFv
Regarding B1, the “geometric mean MFI fold change over Jurkat parental” value (from here on “geometric mean MFI fold change”) in test [1] is below 2 fold; in test [2], 10 to 30 fold. The figures for the binding result in test [3] and in test [4] were “no binding” and “binds”, respectively.

B2: Polypeptide No. 285 (scFv, V domains shown)
VH: QVQLVQSGAEVKKPGSSVKVSCKASGYSFTNYYMHWVRQAPGQGLEWMGGIIPVFGTTTYSQTFQGRVTITADESTSTAYMELSSLRSEDTAVYYCARESQDGDFDYWGQGTLVTVSS
VL: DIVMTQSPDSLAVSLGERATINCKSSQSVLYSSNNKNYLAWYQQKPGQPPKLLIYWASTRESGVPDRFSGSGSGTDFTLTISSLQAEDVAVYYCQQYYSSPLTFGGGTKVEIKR
notes: scFv
Take B2: the binding result with huFLT3-T227-His and with huFLT3-M227-Fc was “binds” in each case.

B3: Polypeptide No. 252 (scFv, V domains shown)
VH: QVQLVQSGAEVKKPGSSVKVSCKASGYTLTDLSIHWVRQAPGQGLEWVGGIIPMSGTANYAQKFQGRVTITADESTSTAYMELSSLRSEDTAVYYCARSSSSWPKYFQHWGQGTLVTVSS
VL: not shown
notes: scFv
As for B3, the binding result with huFLT3-T227-His and with huFLT3-M227-Fc was “binds” throughout.

B4: Polypeptide No. 255 (scFv, V domains shown)
VH: QVQLVQSGAEVKKPGSSVKVSCKASGYTLTELSMHWVRQAPGQGLEWMGGIIPISGTVTYAQKFQGRVTITADESTSTAYMELSSLRSEDTAVYYCANKGQQLVRGYFQHWGQGTLVTVSS
VL: DIQMTQSPSSLSASVGDRVTITCQASHDIRNSVNWYQQKPGKAPKLLIYATSSLQSGVPSRFSGSGSGTDFTLTISSLQPEDFATYYCQQSYNTPFTFGQGTKLEIKR
notes: scFv
On to B4, for which the binding result with huFLT3-T227-His and with huFLT3-M227-Fc was “binds” in each case.

B5: Polypeptide No. 267 (scFv, V domains shown)
VH: QVQLVQSGAEVKKPGSSVKVSCKASGYTLTSFGISWVRQAPGQGLEWVGMIIPLSGTTHYAQKFQGRVTITADESTSTAYMELSSLRSEDTAVYYCANLYGGNAYYYYGMDVWGQGTTVTVSS
VL: DIQMTQSPSSLSASVGDRVTITCRASQDISNFVAWYQQKPGKAPKLLIYAASSLQSGVPSRFSGSGSGTDFTLTISSLQPEDFATYYCQQSFDTPYTFGQGTKLEIKR
notes: scFv
As for B5, the binding result with huFLT3-T227-His and with huFLT3-M227-Fc was “binds” throughout.

B6: Polypeptide No. 31 (scFv, V domains shown)
VH: QVQLVQSGAEVKKPGSSVKVSCKASGGTFSTYAITWVRQAPGQGLEWMGGIIPIVGRANYAQKFQGRVTITADESTSTAYMELSSLRSEDTAVYYCARSGGHDLDYWGQGTLVTVSS
VL: DIQMTQSPSSLSASVGDRVTITCRASQGIGNDLGWYQQKPGKAPKLLIYGASSVQSGVPSRFSGSGSGTDFTLTISSLQPEDFATYYCQQSYSTPITFGQGTRLEIKR
notes: scFv
B6: the entries for the “geometric mean MFI fold change” value in test [1] and in test [2] were below 2 fold and 10 to 30 fold, respectively. In addition, the binding result is “no binding” in test [3] and “binds” in test [4].

B7: Polypeptide No. 35 (scFv, V domains shown)
VH: QVQLVQSGAEVKKPGASVKVSCKASGYTFTDYYMHWVRQAPGQGLEWMGIINPSGGSTRYAQKFQGRVTMTRDTSTSTVYMELSSLRSEDTAVYYCARVDGRRWLRSDYWGQGTLVTVSS
VL: DIQMTQSPSSLSASVGDRVTITCRASQGIRNDLAWYQQKPGKAPKLLIYAASTLQNGVPSRFSGSGSGTDFTLTISSLQPEDFATYYCQQSYSTPWTFGQGTKVEIKR
notes: scFv
Regarding B7, the “geometric mean MFI fold change” value in test [1] is below 2 fold; in test [2], 2 to 10 fold. Also, the binding result is recorded as “no binding” in test [3] and “binds” in test [4].

B8: Polypeptide No. 266 (scFv, V domains shown)
VH: QVQLVQSGAEVKKPGSSVKVSCKASGYSLTELSIHWVRQAPGQGLEWMGGINPISGTANYAQKFQGRVTITADESTSTAYMELSSLRSEDTAVYYCARGTVRLNWFDPWGQGTLVTVSS
VL: EIVMTQSPATLSVSPGERATLSCRASQSVGSQLGWYQQKPGQAPRLLIYGASTRATGIPARFSGSGSGTEFTLTISSLQSEDFAVYYCQQSFSTPLTFGGGTKVEIKR
notes: scFv
Consider B8, for which the binding result with huFLT3-T227-His and with huFLT3-M227-Fc was “binds” throughout.

B9: Polypeptide No. 271 (scFv, V domains shown)
VH: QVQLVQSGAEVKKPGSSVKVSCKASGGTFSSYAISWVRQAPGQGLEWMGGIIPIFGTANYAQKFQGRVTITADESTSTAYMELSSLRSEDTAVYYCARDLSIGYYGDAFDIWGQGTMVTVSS
VL: EIVMTQSPATLSVSPGERATLSCRASQSVSYNQLAWYQQKPGQAPRLLIYDISSRAAGIPARFSGSGSGTEFTLTISSLQSEDFAVYYCQQYGGLPATFGQGTRLEIKR
notes: scFv
With B9, the binding result with huFLT3-T227-His and with huFLT3-M227-Fc was “binds” throughout.

B10: Polypeptide No. 26 (scFv, V domains shown)
VH: QVQLVQSGAEVKKPGASVKVSCKASGYTFTENEMHWVRQAPGQGLEWMGWMNPNSGNTGYAQKFQGRVTMTRDTSTSTVYMELSSLRSEDTAVYYCAREGGDWPYYYMDVWGKGTTVTVSS
VL: DIQMTQSPSSLSASVGDRVTITCQASQDIRNYLNWYQQKPGKAPKLLIYAASSLQSGVPSRFSGSGSGTDFTLTISSLQPEDFATYYCQQTSSTPLTFGPGTKVDIKR
notes: scFv
For B10, the figures for the “geometric mean MFI fold change” value in test [1] and in test [2] were below 2 fold and 2 to 10 fold, respectively. Besides, the binding result in test [3] was “no binding”; in test [4] it was “binds”.

B11: Polypeptide No. 27 (scFv, V domains shown)
VH: QVQLVQSGAEVKKPGASVKVSCKASGYTLTGYYMHWVRQAPGQGLEWMGWMNPSSGNTGYAQQFQGRVTMTRDTSTSTVYMELSSLRSEDTAVYYCARASSDRYYYDGVWYFDLWGRGTLVTVSS
VL: DIQMTQSPSSLSASVGDRVTITCRASQDIRNNLGWYQQKPGKAPKLLIYGASSLQSGVPSRFSGSGSGTDFTLTISSLQPEDFATYYCQQTYSSPPTFGQGTKLEIKR
notes: scFv
B11: the “geometric mean MFI fold change” value was below 2 fold in test [1] and 2 to 10 fold in test [2]. The binding result in test [3] is reported as “no binding”; in test [4], “binds”.

B12: Polypeptide No. 272 (scFv, V domains shown)
VH: QVQLVQSGAEVKKPGSSVKVSCKASGYIFTNYYIQWVRQAPGQGLEWMGGIIPIFGTVGYAQKFQGRVTITADESTSTAYMELSSLRSEDTAVYYCARGRIGGGNDYWGQGTLVTVSS
VL: DIQMTQSPSSLSASVGDRVTITCQASQYISNYLNWYQQKPGKAPKLLIYDASSLESGVPSRFSGSGSGTDFTLTISSLQPEDFATYYCQQSYSTPYTFGQGTKLEIKR
notes: scFv
With B12, the binding result in the test with huFLT3-T227-His and with huFLT3-M227-Fc was “binds” each time.

B13: Polypeptide No. 264 (scFv, V domains shown)
VH: QVQLVQSGAEVKKPGSSVKVSCKASGYTLTELSMHWVRQAPGQGLEWMGGIIPISSATSIPQKFQGRVTITADESTSTAYMELSSLRSEDTAVYYCARGALYSSSPVRVVAGTKGWFDPWGQGTLVTVSS
VL: DIQMTQSPSSLSASVGDRVTITCRASQDISNYLAWYQQKPGKAPKLLIYAASSLQSGVPSRFSGSGSGTDFTLTISSLQPEDFATYYCQQYYSYPLTFGGGTKVEIKR
notes: scFv
B13: the binding result in the test with huFLT3-T227-His and with huFLT3-M227-Fc was “binds” each time.

B14: Polypeptide No. 274 (scFv, V domains shown)
VH: QVQLVQSGAEVKKPGSSVKVSCKASGYTFTYRYLHWVRQAPGQGLEWMGRITPISGTTNYAQKFQGRVTITADESTSTAYMELSSLRSEDTAVYYCAKDSGQLAHYGMDVWGQGTTVTVSS
VL: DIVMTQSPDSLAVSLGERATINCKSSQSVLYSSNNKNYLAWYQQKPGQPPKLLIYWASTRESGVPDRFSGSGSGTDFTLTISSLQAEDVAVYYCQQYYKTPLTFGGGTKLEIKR
notes: scFv
With B14, the binding result with huFLT3-T227-His and with huFLT3-M227-Fc was “binds” each time.

B15: Polypeptide No. 277 (scFv, V domains shown)
VH: QVQLVQSGAEVKKPGSSVKVSCKASGYTFTGYYMHWVRQAPGQGLEWMGWIDPNSGGTNYAQKFQGRVTITADESTSTAYMELSSLRSEDTAVYYCARDVDTAMVTDYWGRGTLVTVSS
VL: EIVMTQSPATLSVSPGERATLSCRASQSVDNLVGWYQQKPGQAPRLLIYDISSRATGIPARFSGSGSGTEFTLTISSLQSEDFAVYYCQQYGRSPITFGQGTRLEIKR
notes: scFv
As for B15, the binding result with huFLT3-T227-His and with huFLT3-M227-Fc was “binds” throughout.

B16: Polypeptide No. 29 (scFv, V domains shown)
VH: QVQLVQSGAEVKKPGASVKVSCKASGYTFTGYYLHWVRQAPGQGLEWMGVINVRRGSTRYAQNFQGRVTMTRDTSTSTVYMELSSLRSEDTAVYYCARVSGSYYQPWGQGTLVTVSS
VL: DIQMTQSPSSLSASVGDRVTITCRASQSISRWLAWYQQKPGKAPKLLIYDASNLETGVPSRFSGSGSGTDFTLTISSLQPEDFATYYCQQGNSFPPIFGGGTKVEIKR
notes: scFv
As to B16, the “geometric mean MFI fold change” value in test [1] is below 2 fold; in test [2], 2 to 10 fold. The binding result was “no binding” in test [3] and “binds” in test [4].

B17: Polypeptide No. 33 (scFv, V domains shown)
VH: QVQLVQSGAEVKKPGASVKVSCKASGYTFTSYYMHWVRQAPGQGLEWMGIIDPSGGSTNYAQKFQGRVTMTRDTSTSTVYMELSSLRSEDTAVYYCARDYYGSGSYYGLDYWGRGTLVTVSS
VL: DIQMTQSPSSLSASVGDRVTITCRASQGISNNLNWYQQKPGKAPKLLIYDASNLETGVPSRFSGSGSGTDFTLTISSLQPEDFATYYCQQANSFPLTFGPGTKVDIKR
notes: scFv
Regarding B17, the “geometric mean MFI fold change” value was below 2 fold in test [1] and above 30 fold in test [2]. In addition, the figures for the binding result in test [3] and in test [4] were “no binding” and “binds”, respectively.

B18: Polypeptide No. 275 (scFv, V domains shown)
VH: QVQLVQSGAEVKKPGSSVKVSCKASGYTFTSYYMHWVRQAPGQGLEWMGWMNPYSGNTGYAQKFQGRVTITADESTSTAYMELSSLRSEDTAVYYCARVGSGWYSDYWGQGTLVTVSS
VL: not shown
notes: scFv
As to B18, the binding result with huFLT3-T227-His and in the test with huFLT3-M227-Fc was “binds” each time.
